Results as given in patent publication US4331762A, “Bacillus stearothermophilus strain UK 788 and process for producing a useful enzyme” (Unitika Ltd., priority 1980, dated 1982).

How the values were obtained:
Assay in all cases: purified protein, by the assay type
[1] = substrate: O=P(O)(O)OC[C@H]1OC(O)[C@H](O)[C@@H](O)[C@@H]1O; conditions: other: substrate glucose-6-phosphate; pH 8.9
[2] = substrate: NC(=O)c1ccc[n+]([C@@H]2O[C@H](COP(=O)([O-])OP(=O)(O)OC[C@H]3O[C@@H](n4cnc5c(N)ncnc54)[C@H](O)[C@@H]3O)[C@@H](O)[C@H]2O)c1; conditions: other: coenzyme NADP or NAD; pH 8.9
Excerpt: The activity required to increase the absorbance of 1 micromol of NADPH at 340 nm per minute was defined to be one unit.

[3] = substrate: NC(=O)c1ccc[n+]([C@@H]2O[C@H](COP(=O)([O-])OP(=O)(O)OC[C@H]3O[C@@H](n4cnc5c(N)ncnc54)[C@H](OP(=O)(O)O)[C@@H]3O)[C@@H](O)[C@H]2O)c1; conditions: other: coenzyme NADP or NAD; pH 8.9

B1: heat-resistant glucose-6-phosphate dehydrogenase from Bacillus stearothermophilus UK 788 (FERM-P No. 5141) (Geobacillus stearothermophilus ATCC 12980) (protein)
chain: MDNMNPKSIIVIFGATGDLAKRKLFPSLYRLYEKGHLNEQFAVVGVARRPLSADEFRNYVRDSVETAFHQKLADGRFTSHFYYHPFDVTEAESYQRLKSLLEQLDGTYKTEGNRIFYLAMAPEFFGTVTSRLQSEGLTETHGFKRLVIEKPFGHDLASAEKLNDEIRRVFSEREIYRIDHYLGKEMVQNIKVIRFSNAIFEPLWNNRFIANIQITSSETLGVEDRGRYYDHSGALRDMVQNHMLQMVALLAMEPPIKLTTDDIRHEKVKVLRALRPIAHDEVDRYFVRGQYGRGVIHGKHVPAYREEPNVDPDSNTETFVAGKLLIDNFRWAGVPFYIRTGKRMAEKSTKIVVQFKDVPMNLYYRTNETIAPNLLVIHIQPDEGITLHLNGKKTGESTTITAPFQLDYCNNCIDGINTPEAYEKLLYDCMRGDATNFTHWDEVAASWQFVDPISEVWANTKASDFPNYAAGSMGPAAAGELLKKDGFHWWPIEHPRP
- Km [1]: 160 µM
- Km [2]: 1640 µM
- Km [3]: 16 µM
